From PMC8692609, “Native mass spectrometry identifies the HybG chaperone as carrier of the Fe(CN)2CO group during maturation of E. coli [NiFe]-hydrogenase 2” (Scientific Reports, 2021)

B1: HypD (natural protein, E. coli, UniProt P24192 1-373, looked up)
chain: MRFVDEYRAPEQVMQLIEHLRERASHLSYTAERPLRIMEVCGGHTHAIFKFGLDQLLPENVEFIHGPGCPVCVLPMGRIDTCVEIASHPEVIFCTFGDAMRVPGKQGSLLQAKARGADVRIVYSPMDALKLAQENPTRKVVFFGLGFETTMPTTAITLQQAKARDVQNFYFFCQHITLIPTLRSLLEQPDNGIDAFLAPGHVSMVIGTDAYNFIASDFHRPLVVAGFEPLDLLQGVVMLVQQKIAAHSKVENQYRRVVPDAGNLLAQQAIADVFCVNGDSEWRGLGVIESSGVHLTPDYQRFDAEAHFRPAPQQVCDDPRARCGEVLTGKCKPHQCPLFGNTCNPQTAFGALMVSSEGACAAWYQYRQQESEA
notes: HypD, iron-sulfur cluster-containing hydrogenase maturation protein of Escherichia coli; untagged; Carries a 4Fe-4S cluster; Untagged unless stated otherwise; also called HypD scaffold protein
B2: N-terminally His-tagged pre-HybC (natural protein, E. coli, UniProt P0ACE0 1-567, looked up)
chain: MSQRITIDPVTRIEGHLRIDCEIENGVVSKAWASGTMWRGMEEIVKNRDPRDAWMIVQRICGVCTTTHALSSVRAAESALNIDVPVNAQYIRNIILAAHTTHDHIVHFYQLSALDWVDITSALQADPTKASEMLKGVSTWHLNSPEEFTKVQNKIKDLVASGQLGIFANGYWGHPAMKLPPEVNLIAVAHYLQALECQRDANRVVALLGGKTPHIQNLAVGGVANPINLDGLGVLNLERLMYIKSFIDKLSDFVEQVYKVDTAVIAAFYPEWLTRGKGAVNYLSVPEFPTDSKNGSFLFPGGYIENADLSSYRPITSHSDEYLIKGIQESAKHSWYKDEAPQAPWEGTTIPAYDGWSDDGKYSWVKSPTFYGKTVEVGPLANMLVKLAAGRESTQNKLNEIVAIYQKLTGNTLEVAQLHSTLGRIIGRTVHCCELQDILQNQYSALITNIGKGDHTTFVKPNIPATGEFKGVGFLEAPRGMLSHWMVIKDGIISNYQAVVPSTWNSGPRNFNDDVGPYEQSLVGTPVADPNKPLEVVRTIHSFDPCMACAVHVVDADGNEVVSVKVL
notes: HybC, large (catalytic) subunit of hydrogenase 2 of Escherichia coli, as the immature precursor that still has the C-terminal peptide removed on maturation; also called apo-form of the hydrogenase 2 catalytic subunit; hydrogenase 2 large-subunit precursor; source: E. coli (plasmid pCAN-hybC_(stop)), purified on cobalt-charged TALON Superflow agarose; not shown: His tag, N-terminal, kept
B3: StrepII-tagged HybG (natural protein, E. coli, UniProt P0AAM7 1-82, looked up)
chain: MCIGVPGQVLAVGEDIHQLAQVEVCGIKRDVNIALICEGNPADLLGQWVLVHVGFAMSIIDEDEAKATLDALRQMDYDITSA
modifications: populations with a +26 Da modification on the N-terminal cysteinyl residue, a further +44 Da (CO2) modification, or the Fe(CN)2CO group (+136 Da; only on HybG dissociated from the native HybG-HypD complex)
notes: HybG, HypC-family hydrogenase maturation chaperone of Escherichia coli; the N-terminal residue of the protein is the cysteine that is formally amino acid position 2; Deconvoluted mass of the unmodified tagged protein is printed as 9615 Da; also called StrepII-HybG; native HybG; not shown: StrepII, C-terminal, kept

Columns and labels:
StrepII-tagged HybG [1] = target: B3; assay: native MS; isolated StrepII-HybG–HypD complex; 500 mM ammonium acetate pH 6.8, about 10 uM protein, nano-ESI Q-TOF, collision energy 40 V; CID-MS/MS of the 13+ ion at 80 V; conditions: both partners purified
StrepII-tagged HybG [2] = target: B3; assay: native MS; purified N-terminally His-tagged pre-HybC supplemented with equimolar amounts of StrepII-HybG; 500 mM ammonium acetate pH 6.8; CID-MS/MS of the 16+ complex ion; conditions: both partners purified
[3] = target: the molecule itself; assay: as above

Binder	stoichiometry N (StrepII-tagged HybG [1])	stoichiometry N (StrepII-tagged HybG [2])	stoichiometry N [3]
B1	1 HybG:HypD	–	–
B2	–	1 HybG:pre-HybC	2
B3	–	–	2
